The source of these data is patent US20210388087A1 (Chugai, published 2021).

Changes are numbered by the printed parent chain.

B1: CE115HA000 H35A (antibody, human IgG1, kappa, L234A L235A, N297A, name in Kabat numbering)
heavy: QVQLVESGGGVVQPGRSLRLSCAASGFTFSNAWMAWVRQAPGKGLEWVAQIKAKSNNYATYYAESVKGRFTISRDDSKNSLYLQMNSLKTEDTAVYYCRYVHYGAYYGVDAWGQGTTVTVSSASTKGPSVFPLAPSSKSTSGGTAALGCLVKDYFPEPVTVSWNSGALTSGVHTFPAVLQSSGLYSLSSVVTVPSSSLGTQTYICNVNHKPSNTKVDKKVEPKSCDKTHTCPPCPAPEAAGGPSVFLFPPKPKDTLMISRTPEVTCVVVDVSHEDPEVKFNWYVDGVEVHNAKTKPREEQYASTYRVVSVLTVLHQDWLNGKEYKCKVSNKALPAPIEKTISKAKGQPREPQVYTLPPSRCELTKNQVSLSCAVKGFYPSDIAVEWESNGQPENNYKTTPPVLDSDGSFFLVSKLTVDKSRWQQGNVFSCSVMHEALHNHYTQKSLSLSPDYKDDDDK
chain: EPKSSDKTHTCPPCPAPELLGGPSVFLFPPKPKDTLMISRTPEVTCVVVDVSHEDPEVKFNWYVDGVEVHNAKTKPREEQYNSTYRVVSVLTVLHQDWLNGKEYKCKVSNKALPAPIEKTISKAKGQPREPQVCTLPPSRDELTKNQVSLWCLVKGFYPSDIAVEWESNGQPENNYKTTPPVLDSDGSFFLYSKLTVDKSRWQQGNVFSCSVMHEALHNRYTQKSLSLSP
light: DIVMTQSPLSLPVTPGEPASISCRSSQSLVHSNRNTYLHWYQQKPGQAPRLLIYKVSNRFSGVPDRFSGSGSGTDFTLKISRVEAEDVGVYYCGQGTQVPYTFGQGTKLEIKRTVAAPSVFIFPPSDEQLKSGTASVVCLLNNFYPREAKVQWKVDNALQSGNSQESVTEQDSKDSTYSLSSTLTLSKADYEKHKVYACEVTHQGLSSPVTKSFNRGEC
notes: one-arm antibody
B2: CE115HA000 A32Y (antibody, human IgG1, kappa, L234A L235A, N297A, name in Kabat numbering)
heavy: B1 heavy with A32Y, A35H
chain: B1 chain
light: B1 light
notes: one-arm antibody
B3: CE115HA000 Y100aA one-arm antibody (antibody, human IgG1, kappa, L234A L235A, N297A, name in Kabat numbering)
heavy: B1 heavy with A35H, Y107A
chain: B1 chain
light: B1 light
B4: CE115HA000 Y100aK one-arm antibody (antibody, human IgG1, kappa, L234A L235A, N297A, name in Kabat numbering)
heavy: B1 heavy with A35H, Y107K
chain: B1 chain
light: B1 light
B5: CE115HA000 Y100aD one-arm antibody (antibody, human IgG1, kappa, L234A L235A, N297A, name in Kabat numbering)
heavy: B1 heavy with A35H, Y107D
chain: B1 chain
light: B1 light
B6: CE115HA000 Y100aF one-arm antibody (antibody, human IgG1, kappa, L234A L235A, N297A, name in Kabat numbering)
heavy: B1 heavy with A35H, Y107F
chain: B1 chain
light: B1 light
B7: CE115HA000 Y100aL one-arm antibody (antibody, human IgG1, kappa, L234A L235A, N297A, name in Kabat numbering)
heavy: B1 heavy with A35H, Y107L
chain: B1 chain
light: B1 light
B8: CE115HA000 Y100aS one-arm antibody (antibody, human IgG1, kappa, L234A L235A, N297A, name in Kabat numbering)
heavy: B1 heavy with A35H, Y107S
chain: B1 chain
light: B1 light
B9: CE115HA000 Y100aG one-arm antibody (antibody, human IgG1, kappa, L234A L235A, N297A, name in Kabat numbering)
heavy: B1 heavy with A35H, Y107G
chain: B1 chain
light: B1 light
B10: CE115HA000 Y100aQ one-arm antibody (antibody, human IgG1, kappa, L234A L235A, N297A, name in Kabat numbering)
heavy: B1 heavy with A35H, Y107Q
chain: B1 chain
light: B1 light
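Wherever KD ratio (KD of CE115HA000/KD of altered form) is given: surface plasmon resonance at 25 °C with CD3 epsilon homodimer amine-coupled to a CM4 sensor chip, antibody injected as analyte, HBS-EP+ as running buffer.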

The target in the first assay is T1, CD3 epsilon homodimer protein (UniProt P07766 23-126).
T1 construct: also called CD3 (CD3 epsilon)
As to the kind of experiment: SPR, CD3 epsilon homodimer on chip, one-arm antibody as analyte. (SPR reads the build-up and loss of mass on a sensor chip optically.)
T1 sequence (P07766 23-126): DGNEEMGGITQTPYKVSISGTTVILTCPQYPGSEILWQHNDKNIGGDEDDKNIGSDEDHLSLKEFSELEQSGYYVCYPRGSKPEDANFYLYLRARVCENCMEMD
On to B1, for which the “KD ratio (KD of CE115HA000/KD of altered form)” value is 25. B2: the “KD ratio (KD of CE115HA000/KD of altered form)” value turned out to be 2.11.

The next assay concerns the target T2, CD3 epsilon homodimer protein (UniProt P07766 23-126).
T2 construct: immobilized on Sensor chip CM4 by amine coupling; also called CD3 (CD3 epsilon)
Briefly: SPR (Biacore T200), CD3 epsilon homodimer on CM4 chip, one-arm antibody as analyte, 25 C.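 Further: homodimer attached to the sensor surface via amine coupling, HBS-EP+ used as running buffer during binding runs.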
T2 sequence (P07766 23-126): as above
On to B3, for which the “ratio of amounts bound (altered form / CE115HA000)” value turned out to be 0.62. On the same count and under the same terms, with B4 the figure was 0.9; with B5, 0.31. For the molecule B6, the “ratio of amounts bound (altered form / CE115HA000)” value was 0.87. On to B7, for which the “ratio of amounts bound (altered form / CE115HA000)” value came to 0.48. Take B8: the “ratio of amounts bound (altered form / CE115HA000)” value is 0.64. Turning to B9, the “ratio of amounts bound (altered form / CE115HA000)” value was 1.23. Take B10: the “ratio of amounts bound (altered form / CE115HA000)” value was 0.56.
